# Test results: paper PMC10397247
# T1: P5-AA-1HGe-Y
# T1 chain: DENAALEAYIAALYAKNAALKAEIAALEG
# T2: P5-AA-1HGe-D
# T2 chain: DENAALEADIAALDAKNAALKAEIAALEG
# T3: P5-AA-1HGe-H
# T3 chain: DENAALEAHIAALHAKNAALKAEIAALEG
# T4: O6-AA
# T4 chain: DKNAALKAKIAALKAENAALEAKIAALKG
# T5: P9-AA
# T5 chain: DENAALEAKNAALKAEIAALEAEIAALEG
# T6: P10-AA
# T6 chain: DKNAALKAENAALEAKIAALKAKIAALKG
# T7: P5-AA-1HGe-R
# T7 chain: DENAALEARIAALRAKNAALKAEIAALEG
# T8: P5-AA-1HGe-T
# T8 chain: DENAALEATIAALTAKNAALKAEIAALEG
# T9: O8-AA
# T9 chain: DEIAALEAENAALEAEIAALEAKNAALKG
# T10: P5-AA-1HGe-Q
# T10 chain: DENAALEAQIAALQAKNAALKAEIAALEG
# T11: P5-AA-1HGe-S
# T11 chain: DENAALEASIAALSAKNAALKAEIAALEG
# T12: P5-AA-1HGe-M
# T12 chain: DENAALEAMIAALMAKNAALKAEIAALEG
# T13: P5-AA-1HGe-A
# T13 chain: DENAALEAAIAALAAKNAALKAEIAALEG
# T14: O7-AA
# T14 chain: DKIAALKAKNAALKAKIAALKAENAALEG
# T15: P5-AA-1HGe-W
# T15 chain: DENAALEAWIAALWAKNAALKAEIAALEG
# Columns and labels:
# Assay in all cases: two-hybrid library CCmax;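 further: natural log of median RNA to DNA barcode read ratio; higher means stronger binding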
# [1] = target: T1, P5-AA-1HGe-Y; details: mean of both orientations
# [2] = target: T2, P5-AA-1HGe-D; details: mean of both orientations
# [3] = target: T3, P5-AA-1HGe-H; details: mean of both orientations
# [4] = target: T4, O6-AA
# [5] = target: T5, P9-AA; details: mean of both orientations
# [6] = target: T6, P10-AA; details: mean of both orientations
# [7] = target: T7, P5-AA-1HGe-R; details: mean of both orientations
# [8] = target: T8, P5-AA-1HGe-T; details: mean of both orientations
# [9] = target: T9, O8-AA; details: mean of both orientations
# [10] = target: T10, P5-AA-1HGe-Q; details: mean of both orientations
# [11] = target: T11, P5-AA-1HGe-S; details: mean of both orientations
# [12] = target: T12, P5-AA-1HGe-M; details: mean of both orientations
# [13] = target: T13, P5-AA-1HGe-A; details: mean of both orientations
# [14] = target: T14, O7-AA; details: mean of both orientations
# [15] = target: T15, P5-AA-1HGe-W; details: mean of both orientations
binder,measurement,setting,value
DKNAALKAKIAALKAENAALEAKIAALKG [O6-AA],interaction score,[1],1.74
same,interaction score,[2],1.7
same,interaction score,[3],1.6
same,interaction score,[4],-0.782
same,interaction score,[5],-0.00244
same,interaction score,[6],-1.2
same,interaction score,[7],1.98
same,interaction score,[8],2.12
same,interaction score,[9],1.57
same,interaction score,[10],2.25
same,interaction score,[11],1.69
same,interaction score,[12],2.06
same,interaction score,[13],2.21
same,interaction score,[14],-0.751
same,interaction score,[15],1.75
